Experimental findings from patent US20160194391A1 (AstraZeneca / MedImmune, published 2016) are described below.

Read-outs that look alike come from different tables or passages of the source.

Test [1] concerns the target T1, human dimeric IL-23 (eBiosciences 34-8239) (human, UniProt P29460 23-328; Q9NPF7 20-189).
T1 sequence (looked up) 1: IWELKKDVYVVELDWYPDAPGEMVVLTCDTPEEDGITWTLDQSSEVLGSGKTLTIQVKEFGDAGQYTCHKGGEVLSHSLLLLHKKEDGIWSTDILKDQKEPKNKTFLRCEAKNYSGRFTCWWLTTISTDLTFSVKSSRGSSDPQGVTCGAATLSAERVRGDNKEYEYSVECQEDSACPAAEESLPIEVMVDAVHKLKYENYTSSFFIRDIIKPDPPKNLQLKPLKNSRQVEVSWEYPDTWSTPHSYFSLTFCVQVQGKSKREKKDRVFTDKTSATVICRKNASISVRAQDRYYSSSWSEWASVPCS
T1 sequence (looked up) 2: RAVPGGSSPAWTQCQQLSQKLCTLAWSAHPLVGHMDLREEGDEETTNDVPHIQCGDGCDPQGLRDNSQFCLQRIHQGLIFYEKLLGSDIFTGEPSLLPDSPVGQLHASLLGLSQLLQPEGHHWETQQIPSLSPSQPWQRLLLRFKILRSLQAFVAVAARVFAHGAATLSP
The test can be described thus: cell-based or functional assay.

In the next test the target is T2, 3×FLAG-IL-6 (human).
T2 construct: it may hold the pre-pro-trypsin leader
T2 sequence (chain, as listed by the source limits assumed): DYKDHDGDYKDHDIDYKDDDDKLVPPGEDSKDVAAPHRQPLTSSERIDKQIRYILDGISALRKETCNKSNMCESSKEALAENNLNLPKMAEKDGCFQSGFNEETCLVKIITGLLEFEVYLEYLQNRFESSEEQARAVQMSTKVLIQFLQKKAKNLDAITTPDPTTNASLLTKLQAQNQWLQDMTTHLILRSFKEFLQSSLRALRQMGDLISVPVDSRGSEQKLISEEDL
Briefly: SPR, 3×FLAG-IL-6 captured by anti-FLAG M2 on protein G, scFv as analyte (1-100 nM).

Test [2] has as its target T3, human IL-6 (human, UniProt P05231 30-212). The test can be described thus: cell-based or functional assay.
In test [3] the target is T3, human IL-6. The test can be described thus: cell-based or functional assay. This is another data set of the same source.
Test [4] deals with T3, human IL-6. Briefly: SPR (SensiQ Pioneer), mAb captured on protein G, IL-6 as analyte (3×FLAG-IL-6 or IL-6 CYT-213, 1-100 nM), 25 C, 1:1 model. The method, then:
Equilibrium constants for rabbit human chimeric mAbs were determined by binding the mAb to the protein G coated chip followed by binding of each analyte (IL-6 or IL-23) to its respective mAb. In order to minimize mass transfer effects, the surface densities of the mAbs for each analyte were adjusted so that as analyte binding approached saturation its corresponding RU fell between 200 and 300. […] For each binding and dissociation cycle the chip surface was regenerated with 15 uL of 20 mM NaOH (5671-02, Mallinckrodt Baker, Philliphsburg, N.J.). The assay temperature was maintained at 25° C. with an analyte flow rate of 50 μL/min and included a 2 minute association phase and 10-30 minute dissociation phase. The on/off rates (kₐ/kd) and dissociation constants (KD) were determined using the format described above along with pseudo-first-order 1:1 interaction model software (Qdat, ICx Nomadics, Stillwater, Okla.).

B1: 14B5 chimeric mAb (antibody, V domains shown)
VH: QSVEESGGRLVTPGTPLTLTCAVSGFSLSDYTMIWVRQAPGEGLEWIGIISSSGNTYYATWVKGRFTISKTSTTVDLKMISPTTEDTATYFCARGSGAYISDYFNVWGPGTLVTVSS
VL: FELTQTPSSVEAAVEGTVTIKCQASQSIDSWLSWYQQKPGQPPKLLIYAASKLATGVPSRFSGSGSGTQFTLTIGDLECADAATYYCQSYYDVNAGYGFGGGTEVVVVR
Turning to B1, the “EC50: concentration necessary to inhibit bioactivity of 50 pg/ml of IL-6” value in test [1] is 0.767 ng/mL.

B2: 28D2 N-Aha (scFv)
scFv: MEDIQLTQSPSFLSASVGDRVTITCQASEDLFSSLAWYQQKPGKAPKLLIYSASTLASGVPSRFSGSGSGTDFTLTISSLQPEDFATYYCLGLYYYLTPDPIYGFGGGTKVEIKGGGGSGGGGSGGGGSGGGGSEVQLVESGGGLVQPGGSLRLSCTVSGLSLSKNAIAWVRQAPGKGLEWVGIIYAGGATTYASWAKGRFTISRDNSKNTLYLQLNSLRAEDTAVYYCAREYAGDSYYTGYTQLDLWGQGTLVTVSSGPPPPPHHHHHH
modifications: azidohomoalanine (Aha) in place of the single Met, at the N terminus
notes: also called E. coli 28D2 scFv with Aha at the N term
For B2, in the test with 3×FLAG-IL-6, binding was put at a Kd of 0.062 nM; the off-rate (koff) (in general, the first-order rate constant of dissociation) turned out to be 8.99e-05 s⁻¹; the on-rate constant (kon) (commonly the second-order rate constant of association) is 1.46e+06 M⁻¹ s⁻¹.

B3: 28D2-L Aha (scFv)
scFv: MADIQLTQSPSFLSASVGDRVTITCQASEDLFSSLAWYQQKPGKAPKLLIYSASTLASGVPSRFSGSGSGTDFTLTISSLQPEDFATYYCLGLYYYLTPDPIYGFGGGTKVEIKGGGGSGMGGSGGGGSGGGGSEVQLVESGGGLVQPGGSLRLSCTVSGLSLSKNAIAWVRQAPGKGLEWVGIIYAGGATTYASWAKGRFTISRDNSKNTLYLQLNSLRAEDTAVYYCAREYAGDSYYTGYTQLDLWGQGTLVTVSSGPPPPPHHHHHH
modifications: azidohomoalanine (Aha) in place of a single Met in the Gly/Ser linker between VL and VH
notes: also called E. coli 28D2 scFv with Aha in the Gly/Ser linker
For the molecule B3, in the test with 3×FLAG-IL-6, binding was characterised by a dissociation constant (Kd) of 0.053 nM, the dissociation rate constant (koff) turned out to be 6.88e-05 s⁻¹ and the kon was 1.3e+06 M⁻¹ s⁻¹.

B4: 8C8 rabbit scFv (scFv, V domains shown)
VH: QSVEESGGRLVAPGGSLTLTCKASGFSLSSSGVSWVRQAPGKGLEWIGYVSIADTISYANWAKGRFTISKTSSTTVDLEMTSLTTEDTATYFCVRGFITYSGVLWGPGTLVTVSS
VL: QVLTQTPASVSAAVGGTVTISCQSSQNVYSNAFLSWYQQKPGQPPKLLIYKASKLASGVPSRFSGSGSGTQFTLTISGVQCDDAATYYCAGEYEGGIGTFGGGTEVVVVR
On to B4, for which the “EC50, inhibition of IL-6 induced B9 cell proliferation” value (“EC50, inhibition” for short) in the test with human IL-6 [2] is 0.51 ng/mL.

B5: 9C8 chimeric mAb (antibody, V domains shown)
VH: QSVEESGGRLVTPGTPLTLTCTVSGIDLSSYDMSWVRQAPGKGLEWIGYIYTDSSTYYANWAKGRFTISKTSTTVDLKMTSLTTEDTATYFCAKGSTDYAFDTRLDLWGPGTLVTVS
VL: AYDMTQTPASVEVAMGGTVTIKCQASQSISNELSWYQQKPGQPPKLLIYRTSTLASGVSSRFKGSGSGTEYTLTISGVECADAATYYCQQGYNSNDVDNVFGGGTKVVVVR
notes: Rabbit/human chimeric IgG (human IgG1, kappa); HEK293; also called 9C8 clone
Take B5: the “EC50, inhibition” value with human IL-6 [3] came to 0.4 ng/mL. Further, in the test with human IL-6 [4], binding was characterised by a dissociation constant (Kd) of 0.042 nM, the koff was determined as 3.17e-05 s⁻¹ and the on-rate constant (kon) is 765000 M⁻¹ s⁻¹.

B6: 28D2 chimeric mAb (antibody, V domains shown)
VH: QSLGESGGRLVTPGTPLTLTCTVSGLSLSKNAIAWVRQAPGKGLEWIGIIYAGGATTYASWAKGRFTISKSSTTVDLKITSPTTVDTATYFCAREYAGDSYYTGYTQLDLWGPGTLVTVSS
VL: ALVMTQTPASVSAAVGGTVTINCQASEDLFSSLAWFQQKPGQPPKLLIYSASTLASGVPSRFSGSGSGTEFTLTISDLECADAATYYCLGLYYYLTPDPIYGFGGGTKVVVV
In the case of B6, the “EC50, inhibition” value with human IL-6 [3] stood at 0.065 ng/mL.

B7: 13A8n-PEG20-31A12c bispecific (bispecific antibody)
scFv 1: DIQLTQSPSFLSASVGDRVTITCQASQSISNELSWYQQKPGKAPKLLIYRASTLTSGVPSRFSGSGSGTEFTLTISSLQPEDFATYYCQQGYNSNDVDNVFGGGTKVEIKGGGGSGGGGSGGGGSGGGGSEVQLVESGGGLVQPGGSLRLSCTVSGIDLSSYDLSWVRQAPGKGLEWVGYIYTDSSTWYANWAKGRFTISRDNSKNTLYLQLNSLRAEDTAVYYCARGSTDYAFDTRLDLWGQGTLVTVSS
scFv 2: DIQLTQSPSFLSASVGDRVTITCQASEDIESYLAWYQQKPGKAPKLLIYSASTLTSGVPSRFSGSGSGTEFTLTISSLQPEDFATYYCLGADDTTTVFGGGTKVEIKGGGGSGGGGSGGGGSGGGGSEVQLVESGGGLVQPGGSLRLSCTASGFSLSSYWLTWVRQAPGKGLEWVGTIATSSTYYASWAKGRFTISRDNSKNTLYLQLNSLRAEDTAVYYCARGLTTDYDLDLWGQGTLVTVSS
modifications: C-terminal azidohomoalanine (Aha) joined through a linear 20 kDa PEG to the Aha of the other scFv; N-terminal azidohomoalanine (Aha) joined through a linear 20 kDa PEG to the Aha of the other scFv
As to B7, in the test with human IL-6 [2], the “EC50, neutralization of IL-6, first batch” value stood at 1.67 ng/mL and the “EC50, neutralization of IL-6, second batch” value turned out to be 1.69 ng/mL. For the same molecule, in test [1], the “EC50, neutralization of IL-23, first batch” value came out at 4.96 ng/mL and the “EC50, neutralization of IL-23, second batch” value was 3.25 ng/mL.

B8: 13A8c-40KPEG-31A12c bispecific (bispecific antibody)
scFv 1: DIQLTQSPSFLSASVGDRVTITCQASQSISNELSWYQQKPGKAPKLLIYRASTLTSGVPSRFSGSGSGTEFTLTISSLQPEDFATYYCQQGYNSNDVDNVFGGGTKVEIKGGGGSGGGGSGGGGSGGGGSEVQLVESGGGLVQPGGSLRLSCTVSGIDLSSYDLSWVRQAPGKGLEWVGYIYTDSSTWYANWAKGRFTISRDNSKNTLYLQLNSLRAEDTAVYYCARGSTDYAFDTRLDLWGQGTLVTVSS
scFv 2: DIQLTQSPSFLSASVGDRVTITCQASEDIESYLAWYQQKPGKAPKLLIYSASTLTSGVPSRFSGSGSGTEFTLTISSLQPEDFATYYCLGADDTTTVFGGGTKVEIKGGGGSGGGGSGGGGSGGGGSEVQLVESGGGLVQPGGSLRLSCTASGFSLSSYWLTWVRQAPGKGLEWVGTIATSSTYYASWAKGRFTISRDNSKNTLYLQLNSLRAEDTAVYYCARGLTTDYDLDLWGQGTLVTVSS
modifications: C-terminal azidohomoalanine (Aha) joined through a linear 40 kDa PEG to the Aha of the other scFv
As to B8, in the test with human IL-6 [2], the “EC50, B9 cell line bioassay” value is 0.138 ng/mL. Also, in test [1], the “EC50, mouse splenocyte assay” value stood at 2.7 ng/mL.

B9: 13A8n-PEG-45G5c bispecific (bispecific antibody)
scFv 1: DIQLTQSPSFLSASVGDRVTITCQASQSISNELSWYQQKPGKAPKLLIYRASTLTSGVPSRFSGSGSGTEFTLTISSLQPEDFATYYCQQGYNSNDVDNVFGGGTKVEIKGGGGSGGGGSGGGGSGGGGSEVQLVESGGGLVQPGGSLRLSCTVSGIDLSSYDLSWVRQAPGKGLEWVGYIYTDSSTWYANWAKGRFTISRDNSKNTLYLQLNSLRAEDTAVYYCARGSTDYAFDTRLDLWGQGTLVTVSS
scFv 2: MADIQLTQSPSFLSASVGDRVTITCQSSQSIYNNNLLSWYQQKPGKAPKLLIYFASTLASGVPSRFSGSGSGTEFTLTISSLQPEDFATYYCLGGYDDDADTAFGGGTKVEIKGGGGSGGGGSGGGGSGGGGSEVQLVESGGGLVQPGGSLRLSCTVSGFSLSVYAINWVRQAPGKGLEWVGIINDVDDTAYSAWAKGRFTISRDNSKNTLYLQLNSLRAEDTAVYYCARGYLSYAYAGDAFDPWGQGTLVTVSSGM
modifications: C-terminal azidohomoalanine (Aha) joined through a 20 kDa PEG to the Aha of the other scFv; N-terminal azidohomoalanine (Aha) joined through a 20 kDa PEG to the Aha of the other scFv
Turning to B9, the “EC50, B9 cell line bioassay” value in the test with human IL-6 [2] stood at 0.933 ng/mL. The “EC50, mouse splenocyte assay” value in test [1] worked out at 5.66 ng/mL.

B10: 13A8c-PEG-22H8c bispecific (bispecific antibody)
scFv 1: DIQLTQSPSFLSASVGDRVTITCQASQSISNELSWYQQKPGKAPKLLIYRASTLTSGVPSRFSGSGSGTEFTLTISSLQPEDFATYYCQQGYNSNDVDNVFGGGTKVEIKGGGGSGGGGSGGGGSGGGGSEVQLVESGGGLVQPGGSLRLSCTVSGIDLSSYDLSWVRQAPGKGLEWVGYIYTDSSTWYANWAKGRFTISRDNSKNTLYLQLNSLRAEDTAVYYCARGSTDYAFDTRLDLWGQGTLVTVSS
scFv 2: DIQLTQSPSFLSASVGDRVTITCQSSQTVYKNNLLSWYQQKPGKAPKLLIYLASTLASGVPSRFSGSGSGTEFTLTISSLQPEDFATYYCLGGYDDDADTAFGGGTKVEIKGGGGSGGGGSGGGGSGGGGSEVQLVESGGGLVQPGGSLRLSCTVSGFSLSTYTLNWVRQAPGKGLEWVGAISYDGGTAYANWAKGRFTISRDNSKNTLYLQLNSLRAEDTAVYYCARGFYVYAYIGDAFDPWGQGTLVTVSS
modifications: C-terminal azidohomoalanine (Aha) joined through a 20 kDa PEG to the Aha of the other scFv
For B10, in the test with human IL-6 [2], the “EC50, B9 cell line bioassay” value is 0.246 ng/mL. In test [1], the “EC50, mouse splenocyte assay” value turned out to be 0.234 ng/mL.
